From patent publication US6383479B1, “Neutrophil-activating factor” (Novartis AG, priority 1987, dated 2002)

Tests used:
[1] = resistance of NAF activity to heat, pH, denaturing agents and proteases; format: physicochemical
Experimental: Partially purified NAF obtained upon phosphocellulose chromatography (Example 4) is used in these experiments. Following phosphocellulose chromatography, fractions with the highest NAF activity are dialysed overnight at 4° against PBS using a membrane with a molecular weight cut-off of 1000 daltons. The preparation obtained is then subjected to the following treatments: a) incubation at 37° with and without trypsin, chymotrypsin or proteinase K (100 μg/ml) followed by the addition of an excess of BSA (2 mg/ml) to stop NAF proteolysis; b) heating to 56°, 80° or 95° (as compared to 22° for control); c) exposure to pH 2 or 10 (at 22°) followed by adjustment to pH 7.4 (as compared to pH 7.4 for control); d) exposure to 2 M lithium chloride, 6 M guanidinium chloride, 1% 2-mercaptoethanol or 0.5% sodium dodecyl sulfate (SDS) for 3 h at 22°, followed by dialysis for 24 h at 4° against PBS. When additions are made, samples without NAF are handled in the same way and tested for possible influence on the NAF assay.

[2] = isoelectric point (chromatofocusing); format: physicochemical
Experimental: A sample of 4 ml of NAF partially purified by phosphocellulose chromatography (Example 4) is dialyzed against start buffer consisting of 25 mM ethanolamine-HCl, pH 9.4 and 0.1% polyethylene glycol 6000, and loaded onto a PBE 94 column (0.7×19 cm, Pharmacia) equilibrated with the same buffer. The column is then eluted with 200 ml of polybuffer 96-HCl (diluted 1:10 with water), pH 7.0, containing 0.1% polyethylene glycol 6000. 10-minute fractions are collected at a flow rate of 10-14 ml/h and assayed for NAF activity. Most of the activity elutes in the region of pH 8.5 to pH 8.8 (FIG. 9).

[3] = tested on: human neutrophils; assay: superoxide formation (SOD-sensitive cytochrome c reduction) by human neutrophils; format: cell-based; details: per 10^6 cells
Experimental: a) Superoxide production: neutrophils (3×10^6 /ml) are preincubated at 37° with or without 1 μm PAF for 2 minutes and then stimulated with increasing amounts of NAF. Recordings of cytochrome c reduction following NAF addition are shown.
Superoxide formation is measured at 37° as the SOD sensitive reduction of ferricytochrome c (M. Markert et al., Methods Enzymol. 132 [1984] 267). The assay mixture (800 μl) consists of 0.75×10^6 cells/ml PBS-BSA containing 85 μM cytochrome c. Absorbance changes are recorded in a Hewlett-Packard 8451A diode array spectrophotometer equipped with a thermostated seven-place cuvette exchanger. Table 4 documents the capacity of NAF to elicit the respiratory burst in human neutrophils: […]

[4] = tested on: thymocyte; assay: thymocyte proliferation as a measure of IL-1 activity; format: cell-based; details: phosphocellulose fractions
Experimental: Mononuclear cells obtained from donor blood buffy coats as described in Example 1 are cultured in MEM-PPL for 48 h in the presence of 100 ng/ml LPS in stirred culture bottles (1.5 liter, 5×10^6 cells/ml). The culture supernatants are then collected, centrifuged at 20000 rpm for 20 min. at 4° to remove particulate material, and loaded onto a 10 ml phosphocellulose column (Whatman P11, 1,4×6 cm) equilibrated with 20 mM potassium phosphate buffer, pH 7.2 containing 20 mM NaCl and 5% glycerol. The column is washed with 30 ml of the above buffer and then eluted with 90 ml of a linear NaCl concentration gradient (0.02 M to 1.5 M) in the same buffer. Fractions of 2 ml are collected in 0.1% polyethylene glycol and tested for NAF and IL-1 activity. Absorbance at 280 nm is monitored continuously as a measure of protein.
Most of the protein as well as the IL-1 activity are recovered in the flow-through volume. Elution with a linear NaCl gradient yields some IL-1 activity at low ionic strength followed by a peak of elastase-releasing activity corresponding to NAF, which starts to elute at 0.5 M and reaches its maximum at 0.8 M NaCl. The peak is symmetric and is preceded by a small shoulder.

[5] = tested on: neutrophils; assay: sequential/repeated stimulation of neutrophils (desensitization, superoxide formation); format: cell-based, human
Experimental: a) Neutrophils (3×10^6 /ml) are preincubated at 37° C. for 5 min. and then stimulated with different agonists as indicated (arrows).
b) Sequential or repeated stimulation with NAF and C5a. Conditions as in a).
Arrows show addition of agonists as indicated. The concentration of C5a is 0.5 nM in a) and 0.2 nM in b), that of fMLP is 20 nM in both experiments. The agonists are added in 50 μl of PBS-BSA.
On the other hand, when agonists acting on different receptors are used in sequence.(e.g. fMLP followed by C5a) these stimulations yield a normal response. Experiments of this type are therefore used to find out whether NAF acts by its own receptor or via a receptor also used by other agonists.

## neutrophil-activating factor [NAF]
[1]; 2-mercaptoethanol 1.0%, 22°, 3 h
  Relative activity: 30
[1]; SDS 0.5%, 22°, 3 h
  Relative activity: 100
[1]; Temperature 22°, 3 h (control)
  Relative activity: 100
[1]; Temperature 56°, 1 h
  Relative activity: 82
[1]; Temperature 80°, 15 min
  Relative activity: 80
[1]; Temperature 95°, 5 min
  Relative activity: 66
[1]; guanidinium chloride 6M, 22°, 3 h
  Relative activity: 68
[1]; lithium chloride 2M, 22°, 3 h
  Relative activity: 52
[1]; pH 2.0, 22°, 3 h
  Relative activity: 76
[1]; pH 10.0, 22°, 3 h
  Relative activity: 90
[1]; proteinase K 100 μg/ml, 37°, 12 h
  Relative activity: 0
[1]; trypsin 100 μg/ml, 37°, 4 h
  Relative activity: 100
[1]; trypsin 100 μg/ml, 37°, 12 h
  Relative activity: 8
[1]; α-chymotrypsin 100 μg/ml, 37°, 4 h
  Relative activity: 80
[1]; α-chymotrypsin 100 μg/ml, 37°, 12 h
  Relative activity: 1
[2]
  isoelectric point: approximately 8.6
[3]; NAF 5 μl
  Cytochrome c reduction, Maximum rate: 0.81 nmol/min
  Cytochrome c reduction, Total in 3 min: 0.89 nmol
[3]; NAF 10 μl
  Cytochrome c reduction, Maximum rate: 1.45 ± 0.63 nmol/min
  Cytochrome c reduction, Total in 3 min: 1.45 ± 0.50 nmol
[3]; NAF 20 μl
  Cytochrome c reduction, Maximum rate: 2.32 ± 0.56 nmol/min
  Cytochrome c reduction, Total in 3 min: 2.16 ± 0.39 nmol
[3]; NAF 30 μl
  Cytochrome c reduction, Maximum rate: 2.51 ± 0.50 nmol/min
  Cytochrome c reduction, Total in 3 min: 2.30 ± 0.55 nmol
[3]; NAF 50 μl
  Cytochrome c reduction, Maximum rate: 3.51 ± 0.69 nmol/min
  Cytochrome c reduction, Total in 3 min: 3.10 ± 0.55 nmol
[3]; NAF 100 μl
  Cytochrome c reduction, Maximum rate: 3.69 nmol/min
  Cytochrome c reduction, Total in 3 min: 3.39 nmol
[4]
  thymocyte proliferation-inducing activity (IL-1 activity): no thymocyte proliferation-inducing activity
[5]
  cross-desensitization in combinations of NAF with PAF, fMLP and leukotriene B4: fail to show cross-desensitization
[5]; superoxide formation
  cross-desensitization between NAF and C5a: no cross-desensitization
  desensitization to a second stimulation with the same agonist: complete desensitization
